The values that follow come from patent publication US20060030530A1.

In general, Kd refers to the concentration at which binding is half-saturated. Read a low Kd as a tighter complex.

Experiment [1] addresses human LSR α′ subunit expressed in CHO-K1 cells (human) (UniProt Q86X29). Kind of experiment: cell-based or functional assay.
The target in experiment [2] is endogenous human LSR of PLC hepatoma cells (human) (UniProt Q86X29). Kind of experiment: cell-based or functional assay.
The target of experiment [3] is human LSR α′ subunit expressed in CHO-K1 cells (human) (UniProt Q86X29). Kind of experiment: cell-associated ^125I-leptin on CHO-K1 cells stably expressing LSR α′, 37° C., 2 h; Lineweaver-Burk transformation (FIG. 3C, inset).

Where only a bound is given, the exact number is not on record here.

Chain of endogenous human LSR of PLC hepatoma cells (human) (Q86X29 whole entry): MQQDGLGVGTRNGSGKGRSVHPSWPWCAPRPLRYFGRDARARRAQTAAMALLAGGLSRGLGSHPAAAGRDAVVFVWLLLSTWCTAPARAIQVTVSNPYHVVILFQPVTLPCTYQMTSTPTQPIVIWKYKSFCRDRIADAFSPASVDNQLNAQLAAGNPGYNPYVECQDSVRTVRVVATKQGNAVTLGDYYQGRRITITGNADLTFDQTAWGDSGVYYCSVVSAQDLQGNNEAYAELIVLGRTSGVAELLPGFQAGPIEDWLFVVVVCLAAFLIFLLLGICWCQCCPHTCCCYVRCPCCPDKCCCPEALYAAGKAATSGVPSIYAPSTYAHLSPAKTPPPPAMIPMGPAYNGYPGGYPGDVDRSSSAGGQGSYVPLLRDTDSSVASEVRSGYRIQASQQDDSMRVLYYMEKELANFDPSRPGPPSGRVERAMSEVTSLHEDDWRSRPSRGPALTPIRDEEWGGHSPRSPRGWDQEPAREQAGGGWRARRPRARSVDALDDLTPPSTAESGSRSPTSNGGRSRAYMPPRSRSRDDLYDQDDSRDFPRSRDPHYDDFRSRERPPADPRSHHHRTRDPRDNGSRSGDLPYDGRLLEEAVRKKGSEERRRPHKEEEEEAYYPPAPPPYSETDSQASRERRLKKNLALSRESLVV
Chain of human LSR α′ subunit expressed in CHO-K1 cells (human) (Q86X29 whole entry): as above

“^125I-leptin (species not stated) (ligand)” displayed a ^125I-leptin degraded relative to that bound and internalized in experiment [1] of 16%. For the same substance, in experiment [2], the ^125I-leptin degradation by PLC cells (TCA-soluble chloroform-insoluble products) was over 10 ng/mL. In experiment [3], this substance came in with a Kd of 1.3 nM.
Consider “recombinant human leptin (from UniProt P41159 22-167) (ligand)”, for which, in experiment [2], the acute leptin stimulation of oleate-induced ^125I-LDL binding in PLC cells preincubated 24 h with 200 ng/mL leptin: leptin concentration giving the maximal effect worked out at 100 ng/mL; the acute leptin stimulation of oleate-induced ^125I-LDL binding in PLC cells preincubated 24 h with 200 ng/mL leptin: reduction of the maximal effect turned out to be 50%; the oleate-induced LSR binding uptake and degradation of ^125I-LDL in PLC cells was over 10 ng/mL.
